In a protein production outcome set (Wang et al. 2014):

Experiment: label from the status in PepcDB records

Sequence	protein production
MSSKIFCKSWGAEYIAADVVRFRLWATGQQKVMLRLAGKDQEMQANGDGWFTLDVAGVTPGTEYNFVLSDGMVVPDPASRAQKTDVNGPSYVVDPGSYTWRNTGWKGSRWEQAVVYEMHTGTFTPEGTFRAAIAKLPYLAELGVTVIEVMPVAQFGGERGWGYDGVLLYAPHSAYGTPDDFKAFIDAAHGYGLSVVLDIVLNHFGPEGNYLPLLAPAFFHKERMTPWGNGIAYDVDAVRRYIIEAPLYWLTEYHLDGLRFDAIDQIEDSSARHVLVEIAQRIREDITDRPIHLTTEDSRNIISLHPRDQDGNAPLFTAEWNDDFHNAVHVFATGETQAYYNDFADAPEKHLARALAEGFAYQGEISPQTGEPRGVKSTGQPPVAFVDFIQNHDQVGNRAQGDRLITLAGAERTKVLLATLLLSPHIPLLFMGEEYGESRPFLFFTDFHGDLARAVREGRAKEFADHAGENVPDPNAPETFQRSKLNWKQQHSEEGKAWLAFTRELLLLRQKHIVPLLSAARESSGTVLQTAPGFIAVSWRFPGGTLSLALNISATTVLLPDLPGKTLFAWPNESTGSLSQHSLIVRLAQGESAS	not failed
MTSKSRPNRDLAGRLALAAQLALVLVLAAAPELALAQSTMPGQQLLTFAKNFIIAPIALFAIVISGVAAFIRPDLIKTTGYIAIIAVILYFLLANADRLMQAIRAG	failed
MTETKPRIAIRYCTQCNWLLRAGWMAQEILQTFASDIGEVSLIPSTGGLFEITVDGTIIWERKRDGGFPGPKELKQRIRDLIDPERDLGHVDRTKHEGLDT	not failed
MSNEDSLPPFTLFGLDDVENYGLVTEADNSLPLDIHNQVFQLVEKGNQSFKESRFEEAISSYSKANSIKPLDPIVLGNRSAAYIRFGQYLKQRSASISEYKPLNGFDMSMLGELALKDADKLMSLQSSLVKSYITKACALMLLERYEVARDTILSGLQIDPFSGPLRSNLQELEKVMPNSMRKTHGMAERSDDFDCTVCLKLLYEPATTPCGHTFCRSCLFQSMDRGNKCPLCRTVIFMTPRTCAVSVTLNNIIEKNFPEEYAERKSEQDTLVHLGNESMPLFVMDVIIPCQKLSLHIFEPRYRLMVRRIMEGNHRMGMVALDSATGSPVDVACEVEITECDPLPDGRFVLELESHRRCRIVKAWDQDGYRVAEVEWVKDIPPQSEQGKADLRELTTSAASFARSWLDRAKEAARQGDRRRLEILLNVESMIPTPQDPERFSFWLATLTDRRPSERLELLRLQDTGEVLDYRLVQIARQISLFHQSLSFDC	failed
EMRKFLVVLDDSRECLNAMRFAAMRAAHTGGGVAILSIIPPDEFNHWIGVGEVMREEARERIHAHFEVFAKWMRDKQGVEPELVIREGEAVPEIIAHVQEDPEIGVLVLGAGTDKKGPGPLVSQLSRSSGSLPIPITIVPGDLSKE	failed
MSQSSKRKNDSVVETFKDIIPLTFGEEIGNAASHGAAALLTLFILPYAAVHSFNNGGTLESISVSVYVISIFMMFISSTIYHSMQNNTSHKYILRIIDHSMIYVAISGTYTPVLLSVVGGWLGWLVTILLWGTTLWGILYKSIATKVNHRLSLIVYLVMGWVGIIFLPIIIMRTSWWFIFFIFLGGLSYTIGAWFYAQKNKPYFHMIWHIFIVLASFLHMIGIFYFM	failed
MDEADSGGIVTARNVDLSSCDRELVQYPEAIQPHGAMLTVDEQSDRVLHASANCAAFIGKPPEAVIGAPIAAVLGAGWHELLGSLHRMPLDSGPVNIARESFLGSDQGWHLFAHRCGGLIILEFEKAEPEAAGTTSNLYSEVRADLAALQATEGVQAFFDLAVERIRAFTGYDRVMAYRFAEDGSGQVIAEARRDDLEPYLGLHYPATDIPAPARRLFALSWVRHLPDVGYTPVPLLAAKSPLVTGPVDMSFASLRSVSVMYTGYLKNMGVQSTLVMPLVKEGRLWGLISAMHHAAPRHISHQMRMAAEFLAHTLSLLMSAKEDAEQFERSSARKAAAEALTRLLDSEADIGAALHAAGALDLLSALIDAGGVVVQTGDEVATRGEAPAAAPLHELTSWLRERARPVFATDRLPNLDPAAQAVASQASGVLALRPLPDQPMLIAWLRPEQIEDVQWAGDPRKPVEISDADGMQRLRPRNSFALWKESVQGRAVPWRDDEKDAATRLAAAIAEIAAARKGRIERINRALDASHSELSRYTDVASAELKEHLRGIHHLTTSLRRRQGEVLDEEGRQQVATILKLTQRMDALVDALLDRSRGGSEAASETVDLEAVVDDALAPFARRIAEDRIEVRRPMRLGTAQGHREWIGEVFTNLIGNAIRYNDKPERWIEIGVEAGSPPRYYVRDNGIGIADTDQQLVFQMFHRVDQSEQKAEGAGVGLAMTRRIVAHHGGRIWVQSRLGEGATFYFTLAPDEERHDA	failed
MTKIIPVASGKGGVGKTSFVANVGYKLSSLGKTVILVDLDLGGSNLHTCLGVKNKGVGIGSFINKKSKSFSDLVCKTSYDKLYLIPGDALYTGTANLPFSIKKKIIESIQKDLIADFIFLDLGSGTSYNTIDFYLASYSGVIVTIPETPSILNAYSFLKNALYRLLYLGFPQKSPERDYIGNFFKDKIEGTNLGFKDLVVGIELISLSSSLKVKRMMNNFYPRVVLNRIETSEEIAMCENLINVVKNNINIPIEFIGFVPFAKSFREAINNRVPFIDFEKNSKLNKYFEFIAGNLIKSP	failed
MLKTLLTSDVIQVVSQAKDWRDAIAISCQPLIDNGAVEARYVEAIYRSHEAIGPYYVVGPGIAMPHARPEDGVNRLSLALTVITEGVTFNAEGNDPVKLLIVLAATDSNSHIEAISQLAQLFDTASDVQALLNAKTPQDILSVIARY	not failed
MSLKIYGVYRSRASRPLWLLAELDLPFEHVPVIQANRVAHPHGPEAPLNTASAAYLAVNPLGQIPCLEEEGLILTESLAITLHIARTQGGQLGPRSEPEDALMVSWSLFAATAVEPPALEIQLIQRSGGGTSPEGQAAIAIAAERLRRPLARLERHFAAEDYLVGGRFTVADLNLAETLRYGQAHPALLEPFPAVAAWLDRCQSRPAFRLMMERRAAEGHHHHHH	not failed
MSLSIVSYYGSQQSKCGYCAGANCSLSHGMHAYQLDCRDYQDLIDRGWRRCGYYCYKLRNQETCCPCYTIKCNGLEFKLSKSNKRILRRINRFLRDGKRESKPEAGDGDGEADADYAIVAPEVTASEPQPQLPDKSPPVINVEQVASLATAQRKPTKQATAAAVEAPTLGSNKSSLLSSSAAAPISNKPCKKAKQMRLDRRLAKLGDSASYSTKSLTQEKTLRDFLNTDSETNKHRLKLRLIHVYDDEFRRTLPQSFALYKKYQISIHNDPPKDQDAYKEHLQATPLQNEKPWDGPEMGYGSFHQQYWLDDKLIAVGVIDILPGCVSSVYFFYDPDYSFLSLGTYGSLREIELVQSLAEKVPSLKYYYMGFYIHSCPKMRYKGKLSPSYLLCPETYEWLPLTDVIRAKLDEHKYQRLNEDPAARDVNEFLMEHLDEVKLLLGGRTRTDYKHFRQLRGTVSDDDIIIEYSKLVGKECARRMLYVK	failed
MKKRILSAVLVSGVTLGAATTVGAEDLSTKIAKQDSIISNLTTEQKAAQNQVSALQAQVSSLQSEQDKLTARNTELEALSKRFEQEIKALTSQIVARNEKLKNQARSAYKNNETSGYINALLNSKSISDVVNRLVAINRAVSANAKLLEQQKADKVSLEEKQAANQTAINTIAANMAMAEENQNTLRTQQANLEAATANLALQLASATEDKANLVAQKEAAEKAAAEALAQEQAAKVKAQEQAAQQAASVEAAKSAITPAPQATPAAQSSNAIEPAALTAPAAPSARPQTSYDSSNTYPVGQCTWGAKSLAPWAGNNWGNGGQWAYSAQAAGYRTGSTPMVGAIAVWNDGGYGHVAVVVEVQSASSIRVMESNYSGRQYIADHRGWFNPTGVTFIYPHLEHHHHHH	failed
SGSSMEEKVVAVIMVGGPTKGTRFRPLSLNIPKPLFPIAGQPMVHHPISACKRIPNLAQIYLVGFYEEREFALYVSAISNELKVPVRYLREDKPHGSAGGLYHFRNLIMEDSPSHIFLLNCDVCCSFPLPKMLEAHRGYGGIGTLLVIKVSPESASQFGELVADPVTNELLHYTEKPETFVSDRINCGVYVFTPEIFNAIGDVSTQRKDRATLKRVSSFEALQPATRIPTDFVRLDQDILSPLAGKKRLYTYETMDFWEQIKSPGMSLRCSGLYLSQFRLTSPQLLASGDGTRSAIVIGDVYIHPSAKVHPTAKIGPNVSISANARVGPGVRLMSCIILDDVEIMENAVVTNAIVGWKSSIGRWSRVQAEGVYNSKLGVTILGDSVAVEDEVAVTSSIVLPNKTLNVSVQDEIIL	failed
MSIRLTNISKKFGQFQALSPLNLDIQEGEMIGLLGPSGSGKTTLLRIIAGLEGADSGHIHFGNRDVTQVHVRDRRVGFVFQNYALFRHMTVADNVAFGLEVIPKKQRPSAAEIQKRVSHLLEMVQLGHLAQRYPEQLSGGQKQRIALARALATQPEVLLLDEPFGALDAKVRKELRRWLRSLHDELKFTSVFVTHDQDEALELSDRVVVMSNGNIEQVNTPIELYAQPNSRFVFDFLGNVNRFEANWQQNRWTNGDAFIVPPEQTPLQQNGALYVRSHELALADKPNSQAHIPFTIVAITPIGAEVRVELAPIGWQSEELWEAKFTHHHLQELGLQKGSVVYATPRTGYFFGKQGDGSPIRQSWPFLPPGSLAFDI	failed
MCEKTAGDESGRRISRRAGNGEAGRLRSLSRLFDHFATAVTRWTGSPIAFSGACAAILAWASTGPLFGYSEVWQLVVNTGTTIVTFLMVFLIQQAQNKDSRALHVKLDELLVAVNGADVALAEAENLDDDRLLELADAYAARARRLVEHSTQRQRRDRGAEPEVGAARTRLARRPPGARARRHARLCWWQKQYARQRQGGDT	failed
MKNFSRTGKILFSYGAIQMFWGLVMLNVNVFEHTSETIKYVILITGIVFCIISNFFKEHKSHTIT	failed
MALGPEGAADLQRQLTEWTVFTAHCWQARSPQTEVLIATSGGTSEAWQQWLGAVEVQPQAEGDLGDRLHQAFQDSWQVGCDRTVIIGSDCPQIEPHHLDEAFAVLQQADVVIGPASDGGYWLIGLSQPQPQLFQNIDWGSDRVLVQTLEAAQVADLQVAQLESLSDLDRPEDLNLWQPQPQLSVIITTLNEAANLPQTLALIGDAPVETLVVDGGSQDATVAIAQAWGAKVIHSPAGRGRQFNQGAAAAHGNILLFLHGDTRLPPRFWEHVLQTLQPPQVVAGAFQLQIDSPDWRLRWIERGVRWRSHWLQQPYGDQALFLSRDRWRAIGGFSTGPLLEDYRFVRQLRRQGTIAIASAAVMTSARRWQRRGVLQTTLLNQLILLAHHCGVSDQQLARWYRLEHHHHHH	not failed
MVVYGKQKYIMKRCFYMNKKLKTEAVDHLFQAILTLKSTEECYSFFEDVCTVNELLSFSQRYEVAKMLREKRTYLEIADKTGASTATISRVNRSLNYGNDGYDMVFKRLEDQAAEDNEA	failed
MPTPAPSADSTAERRHREKDTPLHRAARRGDADAVRELLARGAEIDALDDKGRTPYRLALDAGHPEIARWLAAAGADRHRSAAGTPGESEKRPRHPPSRLSSKDGIDGYPGWPALTVAAWRGHASTVETLLARGADVAARAPDGHTPLTRAAWNGHAGIVKILLAHGAEADVATPDGRTALMWAAREGHGEVVAVLAAAGARLDATDGDGNTALSWAAQRGKATTVRVLCSLGAATGVARKDGRTPIMLAALGGHPESVEVLLAASADPNATDADGHTALWHAVDGGHSGIVEILLAHGASFDRDRAPGHDALARAAWKGDEKTAGLLLAYGARVDAPSGDGNTALAVAAGRGHAGVIRLLLRKGANPDRRNRRNMTALMLAAQAGHSETVAALLEAGADPTLRNRHRHTAVSLARAGGHEDCVKILEKHRVGRRTLLGFLW	failed
MPKSVRAENISRILKRIMKSPVSRVELAEELGLTKTTVGEIAKIFLEKGIVVEEKDSPKGVGRPTKSLKISPNCAYVLGIEVTRDEIAACLIDASMNILAHEAHPLPSQSDREETLNVMYRIIDRAKDMMEKLGSKLSALTVAAPGPIDTERGIIIDPRNFPLSQIPLANLLKEKYGIEVWVENDADMGAVGEKWYTKRDDSFAWILTGKGIGAGIIIDGELYRGENGYAGEIGYTRVFNGNEYVFLEDVCNENVVLKHVLSMGFSSLAEARDSGDVRVKEYFDDIARYFSIGLLNLIHLFGISKIVIGGFFKELGENFLKKIKIEVETHLLYKHSVDMSFSKVQEPVIAFGAAVHALENYLERVTTS	not failed
